Laboratory results published in paper PMC4537050, “A long pentraxin-3-derived pentapeptide for the therapy of FGF8b-driven steroid hormone-regulated cancers” (Oncotarget, 2015).

Key:
Experiment in all cases: SPR; BIAcore X-100; FGF8b (20 μg/ml in 10 mM sodium acetate, pH 6.0) or other FGFs (10 mM sodium acetate at optimal pH) immobilised on a CM5 sensor chip by EDC/NHS; peptide injected (ARPCA 8 μM to 2000 μM), 4 min at 30 μl/min, 10 min dissociation, in HBS; equilibrium values fitted with the Langmuir equation for monovalent binding
Settings in all cases: both partners purified
[1] = target: T1, FGF5 (UniProt P12034 21-268)
T1 construct: fibroblast growth factor 5 (FGF5)
T1 sequence (looked up): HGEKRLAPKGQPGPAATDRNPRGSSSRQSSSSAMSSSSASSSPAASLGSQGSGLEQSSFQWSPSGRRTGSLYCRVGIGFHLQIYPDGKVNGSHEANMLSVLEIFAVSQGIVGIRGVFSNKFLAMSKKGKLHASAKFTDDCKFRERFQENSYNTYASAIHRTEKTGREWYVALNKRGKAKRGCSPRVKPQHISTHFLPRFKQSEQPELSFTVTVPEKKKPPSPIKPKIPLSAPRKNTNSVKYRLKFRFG

[2] = target: T2, FGF7 (UniProt P21781 32-194)
T2 construct: fibroblast growth factor 7 (FGF7)
T2 sequence (looked up): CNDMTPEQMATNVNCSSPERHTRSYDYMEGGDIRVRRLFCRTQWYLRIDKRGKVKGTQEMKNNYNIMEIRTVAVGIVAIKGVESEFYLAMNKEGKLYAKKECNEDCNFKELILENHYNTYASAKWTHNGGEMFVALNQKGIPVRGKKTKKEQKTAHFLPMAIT

[3] = target: T3, FGF22 (UniProt Q9HCT0 23-170)
T3 construct: fibroblast growth factor 22 (FGF22)
T3 sequence (looked up): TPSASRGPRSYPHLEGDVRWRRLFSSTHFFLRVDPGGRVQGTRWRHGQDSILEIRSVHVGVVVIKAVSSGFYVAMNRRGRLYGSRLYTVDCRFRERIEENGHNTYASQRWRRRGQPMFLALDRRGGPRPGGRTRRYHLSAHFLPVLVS

[4] = target: T4, FGF17 (UniProt O60258 23-216)
T4 construct: fibroblast growth factor 17 (FGF17)
T4 sequence (looked up): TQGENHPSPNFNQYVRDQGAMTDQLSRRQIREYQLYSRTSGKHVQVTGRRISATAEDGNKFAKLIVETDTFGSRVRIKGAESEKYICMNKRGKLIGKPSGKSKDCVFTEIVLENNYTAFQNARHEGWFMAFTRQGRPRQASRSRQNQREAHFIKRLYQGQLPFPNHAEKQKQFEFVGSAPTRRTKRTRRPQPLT

[5] = target: T5, FGF18 (UniProt O76093 28-207)
T5 construct: fibroblast growth factor 18 (FGF18)
T5 sequence (looked up): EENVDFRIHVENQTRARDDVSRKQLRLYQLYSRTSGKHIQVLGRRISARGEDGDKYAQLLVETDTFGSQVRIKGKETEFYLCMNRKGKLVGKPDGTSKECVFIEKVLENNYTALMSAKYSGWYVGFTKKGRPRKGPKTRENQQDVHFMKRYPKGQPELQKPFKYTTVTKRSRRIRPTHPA

[6] = target: T6, FGF16 (UniProt O43320 1-207)
T6 construct: fibroblast growth factor 16 (FGF16)

[7] = target: T7, FGF20 (UniProt Q9NP95 1-211)
T7 construct: fibroblast growth factor 20 (FGF20)
T7 sequence (Q9NP95 whole entry): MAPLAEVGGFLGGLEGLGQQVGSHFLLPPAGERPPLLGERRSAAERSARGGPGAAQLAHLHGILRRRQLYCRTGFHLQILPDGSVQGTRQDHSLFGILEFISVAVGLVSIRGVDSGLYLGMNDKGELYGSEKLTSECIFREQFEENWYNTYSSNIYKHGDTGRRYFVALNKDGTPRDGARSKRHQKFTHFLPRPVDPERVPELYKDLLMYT

B1: Ac-ARPCA-NH2, acetylated pentapeptide corresponding to PTX3(100-104) (peptide)
peptide: Ac-ARPCA-NH2
notes: long pentraxin-3 (PTX3), residues 100-104 of the N-terminal extension; source: synthetic peptide, provided by R. Longhi and A. Gori (CNR, Milano, Italy)
[1]
  Kd: 299 µM
[2]
  Kd: 885 µM
[3]
  Kd: 129 µM
[4]
  Kd: 476 µM
[5]
  Kd: 26 µM
[6]
  Kd: 112 µM
[7]
  Kd: 264 µM
